Data taken from patent publication US20110172168A1 (MEDIGENE, published 2011).
Residue numbers refer to the chain shown, from its start. Values joined by “and” are separate entries in the source; they are usually repeats but may differ in a detail not shown here. Equal entries are not always repeated. One block for each binder: values may come before it.

Experiments:
[1] = molecular target: T1, CEA-derived … (SEQ ID NO: 71)-HLA-A*0201 complex (biotin on the C-terminal biotinylation tag (enzymatic, BirA)); assay: Biacore SPR, pMHC immobilised
T1 construct: also called soluble biotinylated HLA-A2-peptide complex; not shown: C-terminal biotinylation tag that replaces the transmembrane and cytoplasmic domains
Protocol: SPR measures changes in refractive index expressed in response units (RU) near a sensor surface within a small flow cell, a principle that can be used to detect receptor ligand interactions and to analyse their affinity and kinetic parameters. The probe flow cells were prepared by immobilising the pMHC complexes in flow cells via biotin-tag binding. The assay was then performed by passing soluble ILT over the surfaces of the different flow cells at a constant flow rate, measuring the SPR response in doing so.

[2] = molecular target: Class I pMHC on Mel 624 target cells; assay: cell-based or functional assay

B1: SEQ ID NO 22 (receptor)
chain: MAGHLPKPTLWAEPGSVITMDQPVTLRCQGGQETQEYRLYREKKTAPWITRIPQELVKKGQFPIPSITWEHAGRYRCYYGSDTSQWSASSDPLELVVTGVYIKPTLSAQPSPVVNSGGNVTLQCDSQVAFDGFILCKEGEDEHPQCLNSQPHARGSSRAIFSVGPVSPSRRWWYRCYAYGRWLPYEWSLPSDLLELDVD
Kd [1]: ≤ 1000 nM | koff [1]: ≤ 2 s⁻¹

B2: SEQ ID NO 68 (receptor)
chain: MGHLPKPTLWAEPGSVITMDQPVTLRCQGGQETQEYRLYREKKTAPWITRIPQELVKKGQFPIPSITWEHAGRYRCYYGSDTSQWSASSDPLELVVTGVYIKPTLSAQPSPVVNSGGNVTLQCDSPFIADGFILCKEGEDEHPQCLNSQPHARGSSRAIFSVGPVSPSRRWWYRCYAYMSWSPYEWSLPSDLLELDVDG
Kd [1]: ≤ 1000 nM | koff [1]: ≤ 2 s⁻¹

B4: SEQ ID NO 35 (receptor)
chain: B2 chain with S83A, Q84G, W85R, A87E, P126Q, F127V, I128A, A129F, S180N, S182A
Kd [1]: ≤ 1000 nM | koff [1]: ≤ 2 s⁻¹

B5: SEQ ID NO 63 (receptor)
chain: B2 chain with F127W, I128L
Kd [1]: ≤ 1000 nM | koff [1]: ≤ 2 s⁻¹

B7: SEQ ID NO 67 (receptor)
chain: B2 chain with I128V, A129S
Kd [1]: ≤ 1000 nM | koff [1]: ≤ 2 s⁻¹

B8: SEQ ID NO 62 (receptor)
chain: B2 chain with I128L, A129T
Kd [1]: ≤ 1000 nM | koff [1]: ≤ 2 s⁻¹

B9: SEQ ID NO 65 (receptor)
chain: B2 chain with D130E
Kd [1]: ≤ 1000 nM | koff [1]: ≤ 2 s⁻¹

B10: SEQ ID NO 61 (receptor)
chain: B2 chain with F127W, I128V
Kd [1]: ≤ 1000 nM | koff [1]: ≤ 2 s⁻¹

B11: SEQ ID NO 37 (receptor)
chain: MGHLPKPTLWAEPGSVITMDQPVTLRCQGGQETQEYRLYREKKTAPWITRIPQELVKKGQFPIPSITWEHAGRYRCYYGSDTAGRSESSDPLELVVTGVYIKPTLSAQPSPVVNSGGNVTLQCDSQVAFDGFILCKEGEDEHPQCLNSQPHARGSSRAIFSVGPVSPSRRWWYRCYAYPAWTPYEWSLPSDLLELDVDG
Kd [1]: ≤ 1000 nM | koff [1]: ≤ 2 s⁻¹

B13: SEQ ID NO 31 (receptor)
chain: B11 chain with A180I
Kd [1]: ≤ 1000 nM | koff [1]: ≤ 2 s⁻¹

B16: SEQ ID NO 39 (receptor)
chain: B11 chain with P179M, A180S, T182A
Kd [1]: ≤ 1000 nM | koff [1]: ≤ 2 s⁻¹

B17: SEQ ID NO 60 (receptor)
chain: MGHLPKPTLWAEPGSVITMDQPVTLRCQGGQETQQYRLYREKKTAPWITRIPQELVKKGQFPIPSITWEHAGRYRCYYGSDTRQWSASSDPLELVVTGVYIKPTLSAQPSPVVNSGGNVTLQCDSQVAFDGFILCKEGEDDHPQCLNSQPHARGSSRAIFSVGPVSPSRRWRYRCYAYDSNSPYEWTRGSDLLELDVDG
Kd [1]: ≤ 1000 nM | koff [1]: ≤ 2 s⁻¹

B18: SEQ ID NO 29 (receptor)
chain: MHLPKPTLWAEPGSVITLQSPVTLRCQGGQETQQYRLYREKKTAPWITRIPQELVKKGQFPIPSITWEHAGRYRCYYGSDTRQWSASSDPLELVVTGVYIKPTLSAQPSPVVNSGGNVTLQCDSQVAFDGFILCKEGEDDHPQCLNSQPHARGSSRAIFSVGPVSPSRRWRYRCYAYMSWSPYEWSLPSDLLELDVDG
Kd [1]: ≤ 1000 nM | koff [1]: ≤ 2 s⁻¹

B20: SEQ ID NO 27 (receptor)
chain: B18 chain with M178P, S179A, S181T
Kd [1]: ≤ 1000 nM | koff [1]: ≤ 2 s⁻¹

B22: SEQ ID NO 28 (receptor)
chain: B18 chain with S181A
Kd [1]: ≤ 1000 nM | koff [1]: ≤ 2 s⁻¹

B23: SEQ ID NO 25 (receptor)
chain: B18 chain with M178V, S179A, S181A
Kd [1]: ≤ 1000 nM | koff [1]: ≤ 2 s⁻¹

B24: SEQ ID NO 50 (receptor)
chain: B18 chain with V22L, S181A
Kd [1]: ≤ 1000 nM | koff [1]: ≤ 2 s⁻¹

B25: SEQ ID NO 6 (receptor)
chain: B18 chain with M178D, W180N
Kd [1]: ≤ 1000 nM | koff [1]: ≤ 2 s⁻¹

B27: SEQ ID NO 24 (receptor)
chain: B18 chain with M178P, S179I, S181T
Kd [1]: ≤ 1000 nM | koff [1]: ≤ 2 s⁻¹

B28: soluble high affinity c83 (SEQ ID NO: 19) ILT-like polypeptide (receptor)
chain: MAGHLPKPTLWAEPGSVITMDQPVTLRCQGGQETQEYRLYREKKTAPWITRIPQELVKKGQFPIPSITWEHAGRYRCYYGSDTSQWSASSDPLELVVTGVYIKPTLSAQPSPVVNSGGNVTLQCDSQVAFDGFILCKEGEDEHPQCLNSQPHARGSSRAIFSVGPVSPSRRWWYRCYAYMSWSPYEWSLPSDLLELDVDG
notes: also called clone 83 (c83) ILT-2 polypeptide
Average IC50, inhibition of CTL activation (IFN-γ ELISPOT) [2]: 96 nM | IC50, inhibition of CTL activation (IFN-γ ELISPOT, Mel 624 target cells, MART-1 specific T cell clone KA/C5) [2]: 76 nM and 94 nM and 117 nM | Kd [1]: ≤ 1000 nM | koff [1]: ≤ 2 s⁻¹

B29: SEQ ID NO 57 (receptor)
chain: B28 chain with M180D, W182N, S188T, L189R, P190G
Kd [1]: ≤ 1000 nM | koff [1]: ≤ 2 s⁻¹

B30: SEQ ID NO 59 (receptor)
chain: B28 chain with M180D, W182N, L189S, P190G
Kd [1]: ≤ 1000 nM | koff [1]: ≤ 2 s⁻¹

B34: soluble truncated variant of the Wild-Type ILT-2 molecule (receptor)
chain: MGHLPKPTLWAEPGSVITQGSPVTLRCQGGQETQEYRLYREKKTAPWITRIPQELVKKGQFPIPSITWEHAGRYRCYYGSDTAGRSESSDPLELVVTGAYIKPTLSAQPSPVVNSGGNVTLQCDSQVAFDGFILCKEGEDEHPQCLNSQPHARGSSRAIFSVGPVSPSRRWWYRCYAYDSNSPYEWSLPSDLLELLVL
notes: also called soluble wild-type ILT-2; soluble two domain form of the wild-type ILT-2
Kd [1]: ~6000 nM | koff [1]: 2.4 s⁻¹

Other lines, results leading:

Kd [1]: ≤ 1000 nM | koff [1]: ≤ 2 s⁻¹
B3: SEQ ID NO 66 (receptor)
chain: B2 chain with I128L, A129S, R170K

Kd [1]: ≤ 1000 nM | koff [1]: ≤ 2 s⁻¹
B6: SEQ ID NO 41 (receptor)
chain: B11 chain with P179M, A180S, T182S

Kd [1]: ≤ 1000 nM | koff [1]: ≤ 2 s⁻¹
B12: SEQ ID NO 69 (receptor)
chain: B2 chain with P126M, I128L, A129V

Kd [1]: ≤ 1000 nM | koff [1]: ≤ 2 s⁻¹
B14: SEQ ID NO 33 (receptor)
chain: B11 chain with P179V, T182A

Kd [1]: ≤ 1000 nM | koff [1]: ≤ 2 s⁻¹
B15: SEQ ID NO 64 (receptor)
chain: B2 chain with I128Q

Kd [1]: ≤ 1000 nM | koff [1]: ≤ 2 s⁻¹
B19: SEQ ID NO 42 (receptor)
chain: B18 chain with V22L, M178D, W180N

Kd [1]: ≤ 1000 nM | koff [1]: ≤ 2 s⁻¹
B21: SEQ ID NO 49 (receptor)
chain: B18 chain with V22L

Kd [1]: ≤ 1000 nM | koff [1]: ≤ 2 s⁻¹
B26: SEQ ID NO 26 (receptor)
chain: B18 chain with S179N, S181A

Kd [1]: ≤ 1000 nM | koff [1]: ≤ 2 s⁻¹
B31: SEQ ID NO 56 (receptor)
chain: B28 chain with M180P, S181I, S183T, S188T, P190G

Kd [1]: ≤ 1000 nM | koff [1]: ≤ 2 s⁻¹
B32: SEQ ID NO 55 (receptor)
chain: B28 chain with M180P, S181I, S183T, L189S, P190G

Kd [1]: ≤ 1000 nM | koff [1]: ≤ 2 s⁻¹
B33: SEQ ID NO 58 (receptor)
chain: B28 chain with M180D, W182N, L189Q, P190M
